Assay results reported in publication PMC10868436.

B1: TPL0674_03_F05 (scFv, V domains shown)
VH: EVQLVQSGAEVKKPGASVRVSCKASGYSITNYGISWVRQAPGQGLEWMGWINTYNGNTNYAQKFQGRVTMTRDTSISTAYMELSRLRSDDTAVYYCARDHPYRGMDVWGQGTLVTVSS
VL: SYELTQDPAVSVALGQTVRITCQGDSLRSYYASWYQQKPGQAPVLVIYGKNNRPSGIPDRFSGSSSGNTASLTITGAQAEDEADYYCNSRDSSGNHPHVVFGGGTKLTVL
B2: TPL0674_03_A04 (scFv, V domains shown)
VH: QVQLVQSGSELKKPGASVKVSCKASGYTFTSYAMNWVRQAPGQGLEWMGWINTNTGNPTYAQGFTGRFVFSLDTSVSTAYLQISSLKAEDTAVYYCARDQGGDRHFGYWGQGTTVTVSS
VL: QSELTQPPSASGTPGQRVTISCSGSSSNIGSHRVNWYQQLPGTAPKLLIYSNYHRPAGVPDRFSASKSGTSASLAISGLQSEDEADYYCAAWDDSLNGYVFGTGTQLTVL

Molecular target: consensus sphingomyelinase
Experiment: BLI; ForteBio Octet RED96, […]; 1:1 binding model, […]; triplicate

Row | Binder | Kd [nM]
1 | B1 | 60.2
2 | B2 | 31.5
